Paper PMC4019675 (Nature cell biology, 2013)

B1: FtsZ (untagged) (natural protein, UniProt P0A9A6 1-383, looked up)
chain: MFEPMELTNDAVIKVIGVGGGGGNAVEHMVRERIEGVEFFAVNTDAQALRKTAVGQTIQIGSGITKGLGAGANPEVGRNAADEDRDALRAALEGADMVFIAAGMGGGTGTGAAPVVAEVAKDLGILTVAVVTKPFNFEGKKRMAFAEQGITELSKHVDSLITIPNDKLLKVLGRGISLLDAFGAANDVLKGAVQGIAELITRPGLMNVDFADVRTVMSEMGYAMMGSGVASGEDRAEEAAEMAISSPLLEDIDLSGARGVLVNITAGFDLRLDEFETVGNTIRAFASDNATVVIGTSLDPDMNDELRVTVVATGIGMDKRPEITLVTNKQVQQPVMDRYQQHGMAPLTQEQKPVAKVVNDNAPQTAKEPDYLDIPAFLRKQAD

Columns and labels:
[1] = molecular target: T1, FtsA (wild-type, untagged) (E. coli (PCR amplified from MG1655 …, UniProt P0ABH0 1-420)); test: co-sedimentation
T1 sequence (looked up): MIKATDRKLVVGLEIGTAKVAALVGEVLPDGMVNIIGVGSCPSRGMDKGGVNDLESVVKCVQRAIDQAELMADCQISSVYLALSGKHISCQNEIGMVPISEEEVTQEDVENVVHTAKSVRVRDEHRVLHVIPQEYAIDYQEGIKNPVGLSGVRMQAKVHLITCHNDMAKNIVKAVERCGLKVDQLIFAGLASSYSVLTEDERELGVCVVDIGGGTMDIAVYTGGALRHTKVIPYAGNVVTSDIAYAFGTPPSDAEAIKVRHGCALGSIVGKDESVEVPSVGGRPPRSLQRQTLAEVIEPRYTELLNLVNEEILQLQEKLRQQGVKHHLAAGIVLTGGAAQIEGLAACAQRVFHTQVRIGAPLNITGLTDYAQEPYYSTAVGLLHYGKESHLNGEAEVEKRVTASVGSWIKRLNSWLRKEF

[2] = molecular target: B1; test: co-sedimentation

B1
binding result [1]: binds

B2: His-Δ22-ZipA (domain or fragment)
chain: not shown
binding result [2]: binds
